Reference: patent US20200316211A1, “LOCALLY ACTING TOLL-LIKE RECEPTOR 7 (TLR7) AND/OR TLR8 AGONIST IMMUNOTHERAPY COMPOUNDS AND THEIR USES” (Altimmune UK Limited, priority 2019, published 2020)
Where a SMILES comes first, the peptide text is derived from it. Where no end group is shown, it is not given here. Side-chain parts run from the residue outwards. The star is where a group is joined. X1 = CCCCc1nc2c(N)nc3ccccc3c2n1Cc1ccc(CNC(=O)COCC(=O)*)cc1; Palmitoyl = CCCCCCCCCCCCCCCC(=O)*; PEG3 = NCCOCCOCCOCCC(=O)O; ADJ12 = not defined here

Assays:
[1] = Appearance (visual) and solubility (RP-HPLC of supernatant) in different buffer conditions; type: physicochemical; settings: for Solubility/appearance across buffer conditions: change in pH and/or presence of sodium chloride; for HPLC solubility: peak area vs same compound in 10% acetic acid
Method: The solubility of peptide conjugates KK-12, HH-12, AH-12 and HL-12 was determined by visual inspection of the solution and by RP-HPLC. Twenty (20) minutes after dispersion of the peptide conjugates in different buffer conditions, the solutions were centrifuged for 10 minutes and the supernatant analyzed by RP-HPLC. The peak area of each peptide conjugate was compared with the area of the same compound made fully soluble in 10% acetic acid. Appearance of the solution was evaluated visually according to the following criteria: clear, very slightly opalescent, slightly opalescent, opalescent or precipitated.

[2] = in more than half of the participants; cited from earlier work
[3] = Change in body weight in the CT26 study (systemic toxicity); type: in vivo, BALB/c mice; settings: 100 nmol/dose/animal intratumoral, day 1, 3, 5; body weight minus tumor weight; FIG. 11
Method: (§1) Six to eight-week-old female BALB/c mice (Charles River) were injected subcutaneously with 2×10^5 CT26 cells on the right flank. When the tumors reached an average volume of ˜150 mm^3, mice were randomized into seven groups of eight mice per group, approximately 10 days (13 days) post tumor cell grafting, referred as day 0. After randomization, tumor size and body weight were assessed three times a week for the duration of the study. Animals were sacrificed according to the following humane endpoints: tumor volume ≥2000 mm^3, presence of necrotic or ulcerated tumor, impaired mobility including transient prostration or hunched posture, or interference with a vital physiological function. Treatments were initiated on day 1. All animals from group 1 to group 6 received three intratumoral injections of either formulated or non-formulated small molecule TLR7/8 agonists, or vehicle control, once every two days, on day 1, day 3 and day 5, in 50 μl delivery dose. Mice of group 7 were untreated. Animals from group 1 to group 4 were respectively treated with 100 nmol/dose/animal of kHL-12 or pHL-12 both prepared in 28 mM L-Histidine/Mannitol dilution buffer, or 3M-052 (MedChemExpress, teltralimod Cat. No.: HY-109104) prepared in ethanol/sesame oil (1:10), or R848 (Invivogen, R848 VacciGrade™, Cat. Code vac-r848) reconstituted in 28 mM L-Histidine/Mannitol dilution buffer. Mice from group 5 and group 6 received control vehicles in the delivery dose of 50 μl, 28 mM L-Histidine/Mannitol dilution buffer and ethanol/sesame oil (1:10), respectively.
(§2) Body weight was normalized by subtracting the weight of the tumor to the overall body weight.

[4] = test system: CT26 cells; assay: Antitumor activity after intratumoral injection, CT26 right flank model; type: in vivo, BALB/c mice; settings: 100 nmol/dose/animal intratumoral, day 1, 3, 5; FIG. 10
Method: as §1, §2

[5] = intratumoral, very low doses (0.005 to 0.055 mg); cited from earlier work
[6] = poloxamer 407 thermogel formulation, intratumoral, animal models; cited from earlier work

Compound: CCCCc1nc2c(N)nc3ccccc3c2n1Cc1ccc(CNC(=O)COCC(=O)NCCOCCOCCOCCC(=O)NCCCC[C@H](NC(=O)[C@H](CC(C)C)NC(=O)[C@H](CCCNC(=N)N)NC(=O)[C@H](CCCNC(=N)N)NC(=O)[C@H](CC(C)C)NC(=O)[C@H](CC(C)C)NC(=O)[C@H](C)NC(=O)[C@H](C)NC(=O)[C@H](Cc2c[nH]cn2)NC(=O)[C@H](CC(C)C)NC(=O)[C@H](C)NC(=O)[C@H](CC(C)C)NC(=O)[C@H](Cc2c[nH]cn2)NC(=O)[C@H](C)NC(=O)[C@H](C)NC(=O)[C@H](CC(C)C)NC(=O)[C@H](CC(C)C)NC(=O)[C@H](CCCNC(=N)N)NC(=O)[C@H](CCCNC(=N)N)NC(C)=O)C(N)=O)cc1 [AH-12, Ac-RRLLAAHLALHAALLRRLK(ADJ12)-NH2] (Ac-RRLLAAHLALHAALLRRLK([PEG3-X1])-NH2)
- Solubility/appearance across buffer conditions [1]: change in appearance and/or HPLC solubility
- HPLC solubility ([1]; pH 5.2, NaCl 154 mM): >98% HPLC
- HPLC solubility ([1]; pH 5.2, no NaCl): >98% HPLC
- HPLC solubility ([1]; pH 7.5, NaCl 154 mM): 90% HPLC
- HPLC solubility ([1]; pH 7.5, no NaCl): >98% HPLC

Compound: CCCCOc1nc(N)c2[nH]c(=O)n(CCCN(CCCN3CCOCC3)Cc3cccc(CC(=O)OC)c3)c2n1 [AZD8848]
- Clinical safety issues from systemic interferon signaling [2]: significant influenza-like symptoms

Compound: CCCCc1nc2c(N)nc3ccccc3c2n1Cc1ccc(CNC(=O)COCC(=O)NCCOCCOCCOCCC(=O)NCCCC[C@H](NC(=O)[C@H](CC(C)C)NC(=O)[C@H](CCCNC(=N)N)NC(=O)[C@H](CCCNC(=N)N)NC(=O)[C@H](CC(C)C)NC(=O)[C@H](CC(C)C)NC(=O)[C@H](Cc2c[nH]cn2)NC(=O)[C@H](C)NC(=O)[C@H](CC(C)C)NC(=O)[C@H](CC(C)C)NC(=O)[C@H](C)NC(=O)[C@H](CC(C)C)NC(=O)[C@H](CC(C)C)NC(=O)[C@H](C)NC(=O)[C@H](Cc2c[nH]cn2)NC(=O)[C@H](CC(C)C)NC(=O)[C@H](CC(C)C)NC(=O)[C@H](CCCNC(=N)N)NC(=O)[C@H](CCCNC(=N)N)NC(=O)[C@@H](N)CCCCNC(C)=O)C(N)=O)cc1 [kHL-12, K(Ac)—RRLLHALLALLAHLLRRLK(ADJ12)-NH2] (H-K(Ac)RRLLHALLALLAHLLRRLK([PEG3-X1])-NH2; N-terminus and C-terminus assumed)
- Impact on body weight over time [3]: limited impact on the body weight

Compound: CCCCCCCCCCCCCCCCCC(=O)NCCCCOn1c(CCCC)nc2c(N)nc3ccccc3c21 [3M-052]
- Antitumoral activity (median tumor volume) [4]: comparable
- Impact on body weight over time [3]: pronounced loss in body weight
- Clinical adverse events [5]: induction of adverse events related to cytokine release syndrome
- Systemic release of the drug [6]: systemic release of the drug after administration of this formulation was still observed

Compound: CCCCc1nc2c(N)nc3ccccc3c2n1Cc1ccc(CNC(=O)COCC(=O)NCCOCCOCCOCCC(=O)NCCCC[C@H](NC(=O)[C@H](CC(C)C)NC(=O)[C@H](CCCNC(=N)N)NC(=O)[C@H](CCCNC(=N)N)NC(=O)[C@H](CC(C)C)NC(=O)[C@H](CC(C)C)NC(=O)[C@H](CCCCN)NC(=O)[C@H](C)NC(=O)[C@H](CCCCN)NC(=O)[C@H](CC(C)C)NC(=O)[C@H](C)NC(=O)[C@H](CC(C)C)NC(=O)[C@H](CCCCN)NC(=O)[C@H](C)NC(=O)[C@H](CCCCN)NC(=O)[C@H](CC(C)C)NC(=O)[C@H](CC(C)C)NC(=O)[C@H](CCCNC(=N)N)NC(=O)[C@H](CCCNC(=N)N)NC(C)=O)C(N)=O)cc1 [KK-12, Ac-RRLLKAKLALKAKLLRRLK(ADJ12)-NH2] (Ac-RRLLKAKLALKAKLLRRLK([PEG3-X1])-NH2)
- Solubility/appearance across buffer conditions [1]: remains soluble
- HPLC solubility ([1]; pH 5.2, NaCl 154 mM): >98% HPLC
- HPLC solubility ([1]; pH 5.2, no NaCl): >98% HPLC
- HPLC solubility ([1]; pH 7.5, NaCl 154 mM): >98% HPLC
- HPLC solubility ([1]; pH 7.5, no NaCl): >98% HPLC

Compound: CCCCc1nc2c(N)nc3ccccc3c2n1Cc1ccc(CNC(=O)COCC(=O)NCCOCCOCCOCCC(=O)NCCCC[C@H](NC(=O)[C@H](CC(C)C)NC(=O)[C@H](CCCNC(=N)N)NC(=O)[C@H](CCCNC(=N)N)NC(=O)[C@H](CC(C)C)NC(=O)[C@H](CC(C)C)NC(=O)[C@H](Cc2c[nH]cn2)NC(=O)[C@H](C)NC(=O)[C@H](CC(C)C)NC(=O)[C@H](CC(C)C)NC(=O)[C@H](C)NC(=O)[C@H](CC(C)C)NC(=O)[C@H](CC(C)C)NC(=O)[C@H](C)NC(=O)[C@H](Cc2c[nH]cn2)NC(=O)[C@H](CC(C)C)NC(=O)[C@H](CC(C)C)NC(=O)[C@H](CCCNC(=N)N)NC(=O)[C@H](CCCNC(=N)N)NC(C)=O)C(N)=O)cc1 [HL-12, Ac-RRLLHALLALLAHLLRRLK(ADJ12)-NH2] (Ac-RRLLHALLALLAHLLRRLK([PEG3-X1])-NH2)
- Solubility/appearance across buffer conditions [1]: change in appearance and/or HPLC solubility
- HPLC solubility ([1]; pH 5.2, NaCl 154 mM): >98% HPLC
- HPLC solubility ([1]; pH 5.2, no NaCl): >98% HPLC
- HPLC solubility ([1]; pH 7.5, NaCl 154 mM): 0% HPLC
- HPLC solubility ([1]; pH 7.5, no NaCl): >98% HPLC

Compound: CCCCc1nc2c(N)nc3ccccc3c2n1Cc1ccc(CNC(=O)COCC(=O)NCCOCCOCCOCCC(=O)NCCCC[C@H](NC(=O)[C@H](CC(C)C)NC(=O)[C@H](CCCNC(=N)N)NC(=O)[C@H](CCCNC(=N)N)NC(=O)[C@H](CC(C)C)NC(=O)[C@H](CC(C)C)NC(=O)[C@H](Cc2c[nH]cn2)NC(=O)[C@H](C)NC(=O)[C@H](Cc2c[nH]cn2)NC(=O)[C@H](CC(C)C)NC(=O)[C@H](C)NC(=O)[C@H](CC(C)C)NC(=O)[C@H](Cc2c[nH]cn2)NC(=O)[C@H](C)NC(=O)[C@H](Cc2c[nH]cn2)NC(=O)[C@H](CC(C)C)NC(=O)[C@H](CC(C)C)NC(=O)[C@H](CCCNC(=N)N)NC(=O)[C@H](CCCNC(=N)N)NC(C)=O)C(N)=O)cc1 [HH-12, Ac-RRLLHAHLALHAHLLRRLK(ADJ12)-NH2] (Ac-RRLLHAHLALHAHLLRRLK([PEG3-X1])-NH2)
- Solubility/appearance across buffer conditions [1]: change in appearance and/or HPLC solubility
- HPLC solubility ([1]; pH 5.2, NaCl 154 mM): >98% HPLC
- HPLC solubility ([1]; pH 5.2, no NaCl): >98% HPLC
- HPLC solubility ([1]; pH 7.5, NaCl 154 mM): 55% HPLC
- HPLC solubility ([1]; pH 7.5, no NaCl): >98% HPLC

Compound: CCOCc1nc2c(N)nc3ccccc3c2n1CC(C)(C)O [R848, 1-(4-amino-2-(ethoxymethyl)-1H-imidazo[4,5-c]quinolin-1-yl)-2-methylpropan-2-ol]
- Antitumoral activity (median tumor volume) [4]: comparable
- Impact on body weight over time [3]: pronounced loss in body weight

Compound: K(Pam)-RRLLHALLALLAHLLRRLK(ADJ12)-NH2 (K(Palmitoyl)RRLLHALLALLAHLLRRLK(ADJ12)-NH2; reading uncertain; also: printed as K(Pam)-RRLLHALLALLAHLLRRLK(ADJ12)-NH2) [pHL-12]
- Antitumoral activity (median tumor volume) [4]: lower level of antitumor activity
